Here are results for 1 molecule from patent US20170056488A1.

The target in the experiment is HLA-A*02 (human). Put plainly: UV ligand exchange, anti-b2m ELISA; exchange yield grade. (In general: In an ELISA, binding on a coated surface is turned into a signal by an enzyme label.)

Regarding VLLRVLIL, the peptide exchange yield lay in the range of 20 to 49%.
